Columns and labels:
Experiment in all cases: FRET or BRET; FRET-FLIM in nuclei of co-infiltrated N. benthamiana leaves (with P19), 48 h; SPT-EGFP as donor, RFP fusions as acceptors; with or without co-expressed SEC-3xHA or SPY-3xHA; at least 60 nuclei per condition
[1] = target: T1, HECATE 1 (HEC1) fused to RFP (p35S:HEC1-RFP) (Arabidopsis thaliana, UniProt Q9FHA7 1-241); settings: partners not purified
T1 construct: HECATE 1 (HEC1), bHLH transcription factor of Arabidopsis thaliana; source: N. benthamiana leaves, Agrobacterium-infiltrated, in nuclei of the leaf cells
T1 sequence (looked up): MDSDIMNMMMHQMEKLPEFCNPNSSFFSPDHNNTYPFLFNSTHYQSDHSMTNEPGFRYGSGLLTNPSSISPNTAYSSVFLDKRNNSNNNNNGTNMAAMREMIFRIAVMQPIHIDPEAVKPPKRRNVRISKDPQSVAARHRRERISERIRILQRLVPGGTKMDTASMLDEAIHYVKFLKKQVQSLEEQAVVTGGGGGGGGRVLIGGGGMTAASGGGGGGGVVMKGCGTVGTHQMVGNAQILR

[2] = target: the molecule itself
[3] = target: T2, INDEHISCENT (IND) fused to RFP (p35S:IND-RFP) (Arabidopsis thaliana, UniProt O81313 1-198); settings: partners not purified
T2 construct: INDEHISCENT (IND), bHLH transcription factor of Arabidopsis thaliana; source: N. benthamiana leaves, Agrobacterium-infiltrated, in nuclei of the leaf cells
T2 sequence (looked up): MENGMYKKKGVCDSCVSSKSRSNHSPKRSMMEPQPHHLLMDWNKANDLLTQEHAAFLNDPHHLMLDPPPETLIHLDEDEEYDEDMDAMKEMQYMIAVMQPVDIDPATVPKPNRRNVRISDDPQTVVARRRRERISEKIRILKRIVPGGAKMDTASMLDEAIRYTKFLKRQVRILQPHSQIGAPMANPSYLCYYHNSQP

B1: SPATULA (SPT) fused to EGFP (p35S:SPT-GFP); second copy in the homodimer test fused to RFP (p35S:SPT-RFP) (natural protein, Arabidopsis thaliana, UniProt Q9FUA4 1-373, looked up)
chain: MISQREEREEKKQRVMGDKKLISSSSSSSVYDTRINHHLHHPPSSSDEISQFLRHIFDRSSPLPSYYSPATTTTTASLIGVHGSGDPHADNSRSLVSHHPPSDSVLMSKRVGDFSEVLIGGGSGSAAACFGFSGGGNNNNVQGNSSGTRVSSSSVGASGNETDEYDCESEEGGEAVVDEAPSSKSGPSSRSSSKRCRAAEVHNLSEKRRRSRINEKMKALQSLIPNSNKTDKASMLDEAIEYLKQLQLQVQMLTMRNGINLHPLCLPGTTLHPLQLSQIRPPEATNDPLLNHTNQFASTSNAPEMINTVASSYALEPSIRSHFGPFPLLTSPVEMSREGGLTHPRLNIGHSNANITGEQALFDGQPDLKDRIT
notes: SPATULA (SPT) of Arabidopsis thaliana; In the SPT;SPT test one copy carried EGFP (FRET donor) and the other RFP (acceptor) in place of EGFP; both copies are written as this one molecule; also called SPT-EGFP; source: N. benthamiana leaves, Agrobacterium-infiltrated, in nuclei of the leaf cells
[1]
  FRET efficiency: 7.4%
[2]
  FRET efficiency: 5.7%
[3]
  FRET efficiency: 9.6%

From doi:10.1101/2023.04.28.538690, “Post-translational modification of SPATULA by SECRET AGENT and SPINDLY promotes organ symmetry transition at the gynoecium apex” (bioRxiv, 2023)
